Ends that are not written are not given here.

Results on two molecules are retold here after PMC9760430, “A stapled chromogranin A-derived peptide homes in on tumors that express αvβ6 or αvβ8 integrins” (International Journal of Biological Sciences, 2023).

For assay [1], the target named is recombinant human αvβ6 integrin (human) (UniProt P06756). Kind of assay: ELISA; competitive integrin binding assay: αvβ6-coated plates, isoDGR peptide labeled with peroxidase as probe for the integrin-binding site; Ki. A general note: ELISA stands for enzyme-linked immunosorbent assay.
The target is the same in assay [2]. Nature of the assay: direct integrin binding assay (near-infrared fluorescence scan of plates); microtiter plates coated with αvβ6 or αvβ8; peptide-IRDye conjugates incubated 1 h, washed, bound fluorescence read with Odyssey CLx; EC50.
The target in assay [3] is recombinant human αvβ8 integrin (human) (UniProt P06756). Described as above.
The target of assay [4] is recombinant murine αvβ6 integrin (murine) (UniProt P43406). Described as above.
Sequence of recombinant murine αvβ6 integrin (murine) (P43406 whole entry, chain 1 of 2): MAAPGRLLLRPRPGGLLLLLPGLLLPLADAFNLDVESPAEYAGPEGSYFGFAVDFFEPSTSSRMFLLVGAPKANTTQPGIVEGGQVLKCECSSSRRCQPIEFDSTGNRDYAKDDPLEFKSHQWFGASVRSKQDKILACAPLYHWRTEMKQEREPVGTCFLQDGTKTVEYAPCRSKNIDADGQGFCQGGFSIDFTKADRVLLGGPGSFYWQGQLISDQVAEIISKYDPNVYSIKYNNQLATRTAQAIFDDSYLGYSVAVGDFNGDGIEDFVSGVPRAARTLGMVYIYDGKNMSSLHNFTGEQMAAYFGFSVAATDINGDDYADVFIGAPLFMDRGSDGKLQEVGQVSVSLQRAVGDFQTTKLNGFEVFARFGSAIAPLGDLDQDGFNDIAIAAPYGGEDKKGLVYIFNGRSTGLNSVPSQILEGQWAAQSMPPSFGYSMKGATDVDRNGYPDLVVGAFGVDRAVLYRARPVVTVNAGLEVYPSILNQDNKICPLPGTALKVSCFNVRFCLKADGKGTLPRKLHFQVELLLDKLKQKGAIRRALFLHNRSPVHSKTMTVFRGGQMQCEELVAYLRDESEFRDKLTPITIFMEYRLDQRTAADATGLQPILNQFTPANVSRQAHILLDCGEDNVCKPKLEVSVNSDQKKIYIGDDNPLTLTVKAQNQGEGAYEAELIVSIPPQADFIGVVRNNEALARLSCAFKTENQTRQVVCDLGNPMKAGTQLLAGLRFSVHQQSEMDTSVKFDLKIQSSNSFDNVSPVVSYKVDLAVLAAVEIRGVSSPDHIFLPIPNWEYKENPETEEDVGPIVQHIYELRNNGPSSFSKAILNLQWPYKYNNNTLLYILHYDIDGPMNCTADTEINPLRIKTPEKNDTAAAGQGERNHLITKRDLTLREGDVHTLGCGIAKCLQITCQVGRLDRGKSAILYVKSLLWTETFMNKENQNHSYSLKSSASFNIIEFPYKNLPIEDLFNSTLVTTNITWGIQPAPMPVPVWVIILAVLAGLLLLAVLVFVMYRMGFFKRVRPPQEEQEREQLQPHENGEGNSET
Sequence of recombinant murine αvβ6 integrin (murine) (Q9Z0T9 whole entry, chain 2 of 2, further chain): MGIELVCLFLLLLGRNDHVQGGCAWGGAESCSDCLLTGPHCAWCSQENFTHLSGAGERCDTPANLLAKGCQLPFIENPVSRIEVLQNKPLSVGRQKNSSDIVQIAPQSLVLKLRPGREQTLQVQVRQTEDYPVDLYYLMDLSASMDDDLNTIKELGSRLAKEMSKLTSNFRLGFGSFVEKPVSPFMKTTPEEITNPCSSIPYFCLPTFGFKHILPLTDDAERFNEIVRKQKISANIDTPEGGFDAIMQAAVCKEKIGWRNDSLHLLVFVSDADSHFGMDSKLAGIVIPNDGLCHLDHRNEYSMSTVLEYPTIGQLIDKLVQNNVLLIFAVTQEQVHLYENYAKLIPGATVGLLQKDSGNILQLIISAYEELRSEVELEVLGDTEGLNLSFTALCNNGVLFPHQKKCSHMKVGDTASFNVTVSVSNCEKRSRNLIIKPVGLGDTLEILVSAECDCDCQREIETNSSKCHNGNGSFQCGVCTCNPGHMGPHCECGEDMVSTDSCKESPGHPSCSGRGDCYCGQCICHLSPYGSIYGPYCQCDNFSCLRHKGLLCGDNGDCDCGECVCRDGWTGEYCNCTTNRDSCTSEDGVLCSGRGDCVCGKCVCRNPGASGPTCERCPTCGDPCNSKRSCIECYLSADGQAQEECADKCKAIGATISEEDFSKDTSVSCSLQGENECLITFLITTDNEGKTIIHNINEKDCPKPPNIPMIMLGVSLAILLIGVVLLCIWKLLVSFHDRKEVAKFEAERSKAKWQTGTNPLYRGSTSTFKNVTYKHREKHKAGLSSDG
For assay [5], the target named is recombinant murine αvβ8 integrin (murine) (UniProt P43406). The assay is described as above.
Sequence of recombinant murine αvβ8 integrin (murine) (P43406 whole entry, chain 1 of 2): as the sequence (P43406 whole entry, chain 1 of 2) above
Sequence of recombinant murine αvβ8 integrin (murine) (Q0VBD0 whole entry, chain 2 of 2, further chain): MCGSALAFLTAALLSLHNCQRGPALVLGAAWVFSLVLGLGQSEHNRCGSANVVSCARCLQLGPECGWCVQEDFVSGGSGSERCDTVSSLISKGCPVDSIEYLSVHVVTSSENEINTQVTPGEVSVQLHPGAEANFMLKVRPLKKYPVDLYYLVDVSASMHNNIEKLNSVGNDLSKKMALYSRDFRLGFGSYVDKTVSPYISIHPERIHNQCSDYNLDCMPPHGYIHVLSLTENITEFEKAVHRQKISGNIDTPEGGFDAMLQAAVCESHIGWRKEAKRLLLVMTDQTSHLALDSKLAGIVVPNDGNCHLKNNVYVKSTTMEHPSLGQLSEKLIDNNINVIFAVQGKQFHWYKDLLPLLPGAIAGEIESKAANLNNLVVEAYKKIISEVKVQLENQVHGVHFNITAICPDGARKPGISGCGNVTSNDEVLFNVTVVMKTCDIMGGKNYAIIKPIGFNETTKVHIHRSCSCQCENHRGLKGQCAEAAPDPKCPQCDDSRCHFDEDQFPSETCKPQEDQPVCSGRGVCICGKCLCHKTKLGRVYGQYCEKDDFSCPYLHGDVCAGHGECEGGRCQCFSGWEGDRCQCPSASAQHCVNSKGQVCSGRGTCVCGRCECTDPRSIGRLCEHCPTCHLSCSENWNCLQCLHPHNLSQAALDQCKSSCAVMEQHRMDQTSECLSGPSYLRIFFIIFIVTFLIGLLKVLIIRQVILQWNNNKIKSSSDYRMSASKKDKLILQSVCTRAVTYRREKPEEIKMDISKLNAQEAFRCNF

One may read the Ki as a measure of affinity in units of concentration, obtained from inhibition or displacement. As to C(maleimide‑NOTA)FETLRGEERILSILRHQNLLKELQD-NH2 [2a-NOTA conjugate], in assay [1], the Ki is above 1000 nM.

The term EC50 denotes the concentration that produces a half-maximal response. With C(maleimide‑IRDye 800CW)FETLRGEERILSILRHQNLLKELQD-NH2 [2a-IRDye conjugate], the EC50 in assay [2], in assay [3], in assay [4] and in assay [5] was above 100 nM throughout.
